From the supplement of paper PMC7877785
± gives the uncertainty stated by the source.

Assay: self-splicing fitness, log relative to wild type (ln ratio); higher = more splicing; Tetrahymena group I intron in knt gene, E. coli kanamycin selection, DiMSum; sequences stand for … in CUCUCU…GGAGGGAAAAGUUAUCAGGCAUGCACCUGGUAGCUAGUCUUUAAACCAAUAGAUUGCAUCGGUUUAAAAGGCAAGACCGUCAAAUUGCGGGAAAGGGGUCAACAGCCGUUCAGUACCAAGUCUCAGGGGAAACUUUGAGAUGGCCUUGCAAAGGGUAUGGUAAUAAGCUGACGGACAUGGUCCUAACCACGCAGCCAAGUCCUAAGUCAACAGAUCUUCUGUUGAUAUGGAUGCAGUUCACAGACUAAAUGUCGGUCGGGGAAGAUGUAUUCUUCUCAUAAGAUAUAGUCGGACCUCUCCUUAAUGGGAGCUAGCGGAUGAAGUGAUGCAACACUGGAGCCGCUGGGAACUAAUUUGUAUGCGAAAGUAUAUUGAUUAGUUUUGGAGUACUCGUGGUCG
In short: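 Colonies from six replicate transformations of E. coli BL21(DE3) were pooled and amplicon-sequenced on an Illumina HiSeq 2500. The library placed an intron with all eight P1ex-region nucleotides randomised inside the knt kanamycin-resistance gene on pET-22b(+), and cells grew overnight at 37°C or 30°C on LB agar with or without 25 μg/mL kanamycin (plus 100 μg/mL carbenicillin, 50 μM IPTG, 0.2% rhamnose). Fitness is the DiMSum error-weighted combination of wild-type-normalised replicate fold changes, kanamycin versus none.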

| Sequence | self-splicing fitness (ln) (30 °C) | self-splicing fitness (ln) (37 °C) |
| --- | --- | --- |
| AGGGAGCAAUAUUACGGGCU | -3.05 ± 0.27 | -2.49 ± 0.3 |
| AGGGAGCAAUAUUACGGGUC | -4.05 ± 0.3 | -3.12 ± 0.22 |
| AGGGAGCAAUAUUACGGUGC | -4.76 ± 0.45 | -3.06 ± 0.47 |
| AGGGAGCAAUAUUACGUACC | -2.86 ± 0.33 | -1.52 ± 0.29 |
| AGGGAGCAAUAUUACGUCAG | – | -2.97 ± 0.35 |
| AGGGAGCAAUAUUACGUGAU | -3.34 ± 0.25 | -2.91 ± 0.26 |
| AGGGAGCAAUAUUACGUGUC | -3.95 ± 0.47 | -2.69 ± 0.26 |
| AGGGAGCAAUAUUACGUGUG | -2.78 ± 0.17 | -3.07 ± 0.26 |
| AGGGAGCAAUAUUACGUUAU | -3.84 ± 0.34 | -2.94 ± 0.25 |
| AGGGAGCAAUAUUACGUUCG | -3.18 ± 0.22 | -1.96 ± 0.23 |
| AGGGAGCAAUAUUACGUUCU | -3.19 ± 0.44 | – |
| AGGUAGCAAUAUUACGACCA | 0.0772 ± 0.018 | 0.199 ± 0.038 |
| AGGUAGCAAUAUUACGACGA | -0.363 ± 0.016 | -0.00769 ± 0.034 |
| AGGUAGCAAUAUUACGAGCG | -0.808 ± 0.014 | -0.435 ± 0.033 |
| AGGUAGCAAUAUUACGAGUG | -2.867 ± 0.019 | -1.58 ± 0.034 |
| AGGUAGCAAUAUUACGAUAC | -2.318 ± 0.021 | -1.16 ± 0.037 |
| AGGUAGCAAUAUUACGAUGC | -1.62 ± 0.017 | -0.828 ± 0.035 |
| AGGUAGCAAUAUUACGCACC | -2.33 ± 0.031 | -1.26 ± 0.042 |
| AGGUAGCAAUAUUACGCGAC | -2.971 ± 0.029 | -1.8 ± 0.04 |
| AGGUAGCAAUAUUACGCUCG | -0.57 ± 0.017 | -0.241 ± 0.036 |
| AGGUAGCAAUAUUACGCUCU | -2.37 ± 0.024 | -1.45 ± 0.038 |
| AGGUAGCAAUAUUACGCUUG | -1.541 ± 0.015 | -1.04 ± 0.034 |
| AGGUAGCAAUAUUACGGAUA | -2.53 ± 0.025 | -1.6 ± 0.036 |
| AGGUAGCAAUAUUACGUAAA | -2.285 ± 0.018 | -1.39 ± 0.034 |

| Sequence | self-splicing fitness (ln) (30 °C) | self-splicing fitness (ln) (37 °C) |
| --- | --- | --- |
| AGGUAGCAAUAUUACGUAUG | -3.698 ± 0.027 | -2.53 ± 0.038 |
| AGGUAGCAAUAUUACGUCCG | -0.127 ± 0.017 | 0.055 ± 0.036 |
| AGGUAGCAAUAUUACGUCGA | -1.4 ± 0.016 | -0.563 ± 0.033 |
| AGGUAGCAAUAUUACGUGAG | -1.02 ± 0.011 | -0.588 ± 0.032 |
| AGGUAGCAAUAUUACGUGCG | -0.955 ± 0.014 | -0.358 ± 0.033 |
| AGGUAGCAAUAUUACGUGUA | -2.265 ± 0.017 | -1.31 ± 0.033 |
| AGGUAGCAAUAUUACGUUAA | -2.881 ± 0.025 | -1.91 ± 0.037 |
| AGGUAGCAAUAUUACGUUAG | -3.842 ± 0.029 | -2.87 ± 0.042 |
| AGGUAGCAAUAUUACGUUAU | -3.603 ± 0.026 | -2.75 ± 0.039 |
| AGGUAGCAAUAUUACGUUGA | -2.893 ± 0.022 | -1.61 ± 0.035 |
| AGGUAGCAAUAUUACGUUGU | -3.385 ± 0.02 | -1.95 ± 0.035 |
| AGGUAGCAAUAUUACGUUUA | -2.151 ± 0.019 | -1.33 ± 0.034 |
| AGUAAGCAAUAUUACGACCC | -1.01 ± 0.47 | -0.157 ± 0.35 |
| AGUAAGCAAUAUUACGAGAA | – | -1.21 ± 0.41 |
| AGUAAGCAAUAUUACGAGCA | -0.223 ± 0.1 | -0.349 ± 0.11 |
| AGUAAGCAAUAUUACGAGUG | -3.01 ± 0.27 | -3.04 ± 0.43 |
| AGUAAGCAAUAUUACGAUGC | -2.58 ± 0.19 | -1.67 ± 0.15 |
| AGUAAGCAAUAUUACGCAAA | -2.45 ± 0.35 | -1.46 ± 0.25 |
| AGUAAGCAAUAUUACGCCAG | -3.63 ± 0.33 | -1.58 ± 0.29 |
| AGUAAGCAAUAUUACGCCCU | -0.35 ± 0.17 | -0.62 ± 0.16 |
| AGUAAGCAAUAUUACGGAUA | -2.85 ± 0.28 | -1.69 ± 0.21 |
| AGUAAGCAAUAUUACGGGCA | -0.89 ± 0.15 | -0.468 ± 0.19 |
| AGUAAGCAAUAUUACGGUGC | -4.4 ± 0.46 | -1.37 ± 0.17 |
| AGUAAGCAAUAUUACGUAUU | -2.89 ± 0.12 | -3.05 ± 0.19 |

| Sequence | self-splicing fitness (ln) (30 °C) | self-splicing fitness (ln) (37 °C) |
| --- | --- | --- |
| AGUAAGCAAUAUUACGUCAU | -2.97 ± 0.23 | -2.12 ± 0.19 |
| AGUAAGCAAUAUUACGUGAA | -3.24 ± 0.15 | -1.68 ± 0.13 |
| AGUAAGCAAUAUUACGUGUA | -2.16 ± 0.12 | -1.8 ± 0.13 |
| AGUAAGCAAUAUUACGUUCC | -1.85 ± 0.16 | -0.345 ± 0.13 |
| AGUCAGCAAUAUUACGAAUG | -1.62 ± 0.09 | -0.853 ± 0.11 |
| AGUCAGCAAUAUUACGAGGC | -2.81 ± 0.31 | -0.606 ± 0.31 |
| AGUCAGCAAUAUUACGAUAG | -1.12 ± 0.14 | -2.32 ± 0.23 |
| AGUCAGCAAUAUUACGAUGC | -1.04 ± 0.097 | -0.00334 ± 0.11 |
| AGUCAGCAAUAUUACGCAAA | -1.62 ± 0.11 | -1.01 ± 0.15 |
| AGUCAGCAAUAUUACGCAAG | -2.69 ± 0.26 | -1.28 ± 0.29 |
| AGUCAGCAAUAUUACGCGCU | -3.02 ± 0.14 | -1.86 ± 0.21 |
| AGUCAGCAAUAUUACGCUAU | -0.623 ± 0.1 | -0.137 ± 0.11 |
| AGUCAGCAAUAUUACGCUGG | -3.87 ± 0.23 | -2.71 ± 0.23 |
| AGUCAGCAAUAUUACGCUUA | -0.891 ± 0.12 | 0.278 ± 0.14 |
| AGUCAGCAAUAUUACGCUUC | -2.35 ± 0.2 | -1.79 ± 0.21 |
| AGUCAGCAAUAUUACGGACU | -2.86 ± 0.27 | -2.27 ± 0.29 |
| AGUCAGCAAUAUUACGGAUG | -1.36 ± 0.054 | 0.106 ± 0.069 |
| AGUCAGCAAUAUUACGGGUC | -1.27 ± 0.11 | -1.43 ± 0.15 |
| AGUCAGCAAUAUUACGGUAG | -3.46 ± 0.15 | -2.76 ± 0.21 |
| AGUCAGCAAUAUUACGUAGC | -2.97 ± 0.13 | -0.778 ± 0.097 |
| AGUCAGCAAUAUUACGUCCG | -2.14 ± 0.12 | -1.29 ± 0.18 |
| AGUCAGCAAUAUUACGUUAU | -1.25 ± 0.099 | -0.0312 ± 0.11 |
| AGUCAGCAAUAUUACGUUCC | -1.13 ± 0.1 | -0.187 ± 0.12 |
| AGUGAGCAAUAUUACGAAUG | -3.4 ± 0.36 | -1.58 ± 0.3 |

| Sequence | self-splicing fitness (ln) (30 °C) | self-splicing fitness (ln) (37 °C) |
| --- | --- | --- |
| AGUGAGCAAUAUUACGAGAG | -2.1 ± 0.26 | -2.36 ± 0.29 |
| AGUGAGCAAUAUUACGAGGA | -2.48 ± 0.32 | -3.09 ± 0.35 |
| AGUGAGCAAUAUUACGAGGG | -3.75 ± 0.24 | -2.13 ± 0.35 |
| AGUGAGCAAUAUUACGAUAC | -3.02 ± 0.22 | -2.47 ± 0.34 |
| AGUGAGCAAUAUUACGAUCA | -1.64 ± 0.13 | -0.675 ± 0.16 |
| AGUGAGCAAUAUUACGAUGA | -4.11 ± 0.39 | -2.24 ± 0.3 |
| AGUGAGCAAUAUUACGAUUC | -2.97 ± 0.28 | -1.27 ± 0.33 |
| AGUGAGCAAUAUUACGCAAG | -2.68 ± 0.22 | -2.98 ± 0.26 |
| AGUGAGCAAUAUUACGCAGG | – | -2.65 ± 0.48 |
| AGUGAGCAAUAUUACGCUCA | – | -2.13 ± 0.25 |
| AGUGAGCAAUAUUACGGCAA | -2.12 ± 0.21 | -0.889 ± 0.2 |
| AGUGAGCAAUAUUACGGGCG | -1.04 ± 0.19 | -0.922 ± 0.27 |
| AGUGAGCAAUAUUACGGUCA | -2.16 ± 0.19 | -0.354 ± 0.19 |
| AGUGAGCAAUAUUACGUCCA | -2.89 ± 0.36 | -1 ± 0.27 |
| AGUGAGCAAUAUUACGUCUG | -2.84 ± 0.34 | -2.07 ± 0.38 |
| AGUGAGCAAUAUUACGUUAA | -2.56 ± 0.31 | -1.57 ± 0.25 |
| AGUGAGCAAUAUUACGUUAU | -3.13 ± 0.17 | -3.08 ± 0.27 |
| AGUGAGCAAUAUUACGUUGU | -4.07 ± 0.19 | -1.78 ± 0.14 |
| AGUUAGCAAUAUUACGAAGC | -3.59 ± 0.48 | -1.98 ± 0.48 |
| AGUUAGCAAUAUUACGAAGU | -2.91 ± 0.17 | -1.47 ± 0.15 |
| AGUUAGCAAUAUUACGACGA | -0.101 ± 0.18 | -0.368 ± 0.14 |
| AGUUAGCAAUAUUACGAGCG | -0.12 ± 0.1 | 0.237 ± 0.11 |
| AGUUAGCAAUAUUACGAGCU | -1.97 ± 0.15 | -0.796 ± 0.17 |
| AGUUAGCAAUAUUACGAGGA | -2.32 ± 0.26 | -2.43 ± 0.25 |
